Here are results for three molecules from publication PMC11786912 (Computational and Structural Biotechnology Journal, 2025).

The target in assay [1] is CD99 on the surface of Jurkat T cells (Homo sapiens (Jurkat, endogenous), UniProt P14209). As to the kind of experiment: flow cytometry on cells. Background: A flow cytometer gives signals particle by particle.
In assay [2] the target is T1, biotinylated CD99 peptide target epitope (Biotin-Ahx-AVVDGENDDPRPPNP) (Homo sapiens (synthetic peptide)).
T1 chain: {Biotin-Ahx}-AVVDGENDDPRPPNP
The experiment in a line: BLI. In general terms: Biolayer interferometry detects binding as a change in optical thickness at a sensor tip.

Ends that are not written are not given here. * marks the point of attachment. Biotin = O=C1N[C@H]2[C@H](CS[C@H]2CCCCC(=O)*)N1; Ahx = NCCCCCC(=O)O

Sequence of CD99 on the surface of Jurkat T cells (P14209 23-185): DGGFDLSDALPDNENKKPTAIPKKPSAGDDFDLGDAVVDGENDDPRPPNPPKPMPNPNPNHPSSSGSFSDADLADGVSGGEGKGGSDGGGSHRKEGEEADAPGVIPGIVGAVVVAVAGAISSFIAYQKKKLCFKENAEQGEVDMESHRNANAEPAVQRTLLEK

B1: HuScFvMT99/3^BP (His6X) (scFv, V domains shown)
VH: QVQLQESGPGLVKPSETLSLTCTVSGGSIKDTYIHWVRQPPGKGLEWIGRIDPGNGNIKYDPKFQGRATISADTSKNQVSLNLDSVTAADTAIYYCARSGGYDFDYWGQGTLVTVSS
VL: VLMTQSPSSLSASVGDRVTITCRSSQSLVHSNGNTYLHWYQQKPGQSPKLLIYTVSNRFSGVPDRFSGSGSGTDFTLTISSLQAEDVAVYYCSQSTYVPYTFGPGTKVDIK
For orientation: Kd means the free concentration of one partner at which half of the binding sites on the other are occupied at equilibrium, for simple one-to-one binding. As to B1, in assay [1], the binding result was “binds”. In addition, binding in assay [2] was characterised by a dissociation constant (Kd) of 264 nM.

B2: HuScFvMT99/3^WT (His6X) (scFv, V domains shown)
VH: QVQLQESGPGLVKPSETLSLTCTLSGFNIKDTYIHWVRQPPGKGLEWIGRIDPGNGNIKYDPKFQGRATISADTSKNQVSLNLDSVSAADTAIYYCARSGGYDFDYWGKGSTVTVSS
VL: VQMTQSPSSLSASVGDRVTITCRSSQSLVHSNGNTYLHWYQQKPGKAPKLLIYTVSNRFSGVPSRFSGSGSGTDFTFTISSLQPEDIATYFCSQSTYVPYTFGPGTKVDIK
Turning to B2, the Kd in assay [2] worked out at 135 nM.

B3: HuScFvMT99/3^HY (His6X) (scFv, V domains shown)
VH: QVQLQESGPGLVKPSETLSLTCTVSGGSIKDTYIHWVRQPPGKGLEWIGRIDPGNGNIKYDPKFQGRATISADTSKNQVSLNLDSVTAADTAIYYCARSGGYDFDYWGQGTLVTVSS
VL: VQMTQSPSSLSASVGDRVTITCRSSQSLVHSNGNTYLHWYQQKPGKAPKLLIYTVSNRFSGVPSRFSGSGSGTDFTFTISSLQPEDIATYFCSQSTYVPYTFGPGTKVDIK
For B3, in assay [1], the binding result is given as “binds”. Besides, the Kd in assay [2] is 395 nM.
